# According to paper PMC11677724, “Preclinical Study of a Dual-Target Molecular Probe Labeled with ^68Ga Targeting SSTR2 and FAP” (Pharmaceuticals, 2024):
# Assays:
# [1] = test system: NCI-H727 cells (SSTR2/FAP, positive); assay: Cell uptake and blocking in NCI-H727 cells; assay type: cell-based; conditions: 1 h
# Description: (§1) The NCI-H727 and Mc38 cell lines were supplied by the Stem Cell Bank of the Chinese Academy of Sciences and were cultivated in Roswell Park Memorial Institute (RPMI-1640) medium with 10% (v/v) fetal bovine serum (FBS) at 37 °C with 5% CO2. All cells were cultured until they reached 80–90% confluence before undergoing trypsinization.
# NCI-H727 cells were placed in a 24-well plate and cultivated for 24 h. The original medium was removed, and fresh RPMI-1640 was added. Then, 100 µL of [^68Ga]Ga-TATE-46, [^68Ga]Ga-DOTA-TATE, or [^68Ga]Ga-FAPI-46 (1.48×10^4 Bq) was added to each well, and the cells were incubated for 30 min, 1 h, 2 h, and 4 h (with three replicates for each time point). The culture medium was taken away, and the cells were washed twice with cold PBS (pH 7.4). Then, the cells were lysed using 0.5 mL of 1 M NaOH.
# (§2) In blocking experiments, an excessive amount of unlabeled FAPI-46, DOTA-TATE, or FAPI-46 + DOTA-TATE (10 µg/well) was added as an inhibitor along with [^68Ga]Ga-TATE-46 to the cells. After 1 h, the cells were processed using the same method. Finally, the cell lysates were gathered, and the radioactivity was measured using a γ-counter. Mc38 cells were used as a negative control, with only [^68Ga]Ga-TATE-46 (1.48 × 10^4 Bq/well, 100 µL) added, and the rest of the procedure was followed as described above.
# [2] = test system: NCI-H727 tumor-bearing mice; assay: Micro PET imaging with ROI quantification and blocking, NCI-H727 tumor-bearing mice; assay type: in vivo, BALB/c nude mice
# Description: Female BALB/c nude mice were obtained from Charles River Laboratories (Beijing, China). […] Approximately 5 × 10^6 cells were implanted into the right shoulder of each mouse to establish an NCI-H727 tumor model and Mc38 tumor model. Once the tumor volume reached 200–300 mm^3, the mice were used for imaging or biodistribution studies. All animal experiments were carried out in accordance with the National Institutes of Health Guidelines for the Care and Use of Laboratory Animals and were approved by the Animal Protection and Utilization Committee of the General Hospital of the PLA (Approval No.: S2023-209-1).
# Each set of NCI-H727 tumor xenograft models (n = 3) was administered with [^68Ga]Ga-TATE-46, [^68Ga]Ga-DOTA-TATE, or [^68Ga]Ga-FAPI-46 (5.55–7.4 MBq, 150 µL/mouse) through the tail vein. Static PET scans were performed at 30 min, 1 h, 2 h, and 4 h after injection for 10 min each. In blocking studies, unlabeled precursors (FAPI-46, DOTA-TATE, FAPI-46 + DOTA-TATE, 10 mg/kg) were co-injected with [^68Ga]Ga-TATE-46. After image acquisition, the images were reconstructed using the three-dimensional ordered subset expectation maximization (3D-OSEM) algorithm and analyzed on the Recon/Avator-s-10 workstation. The percentage of injected dose per gram of tissue (%ID/g) was determined by delineating regions of interest.
# [3] = test system: MC38 cells (SSTR2/FAP, negative); assay: Cell uptake in MC38 cells (negative control); assay type: cell-based; conditions: 1.48×10^4 Bq/well, all time points, all p < 0.001
# Description: as §1, §2
# [4] = Pharmacokinetics, blood time-activity curves, two-compartment model; assay type: in vivo, BALB/c mice; conditions: female healthy BALB/c mice, n = 3 per group, 0.37 MBq tail vein, blood 2-120 min, γ-counter, two-compartment model (WinNonlin)
# Description: Nine female healthy BALB/c mice were randomly divided into three groups (with three mice in each group) using a random number table. Each group was administered 100 µL of [^68Ga]Ga-TATE-46, [^68Ga]Ga-DOTA-TATE, or [^68Ga]Ga-FAPI-46 (0.37 MBq) via tail vein injection. Blood samples (5 µL × 3) were collected at 2, 5, 10, 15, 30, 60, 90, and 120 min post-injection via tail vein. The radioactivity in the blood was measured with a γ-counter and converted to blood radioactivity concentration (kBq/mL). The pharmacokinetic data (time–blood radioactivity concentration) were analyzed by using the two-compartment model in the pharmacokinetic software WinNonlin (Certara, Louis, MO, USA, 2018-06) to determine the distribution and clearance half-life parameters of the radiopharmaceuticals in the mice.
smiles,measurement,setting,value
"C[C@@H](O)[C@H](NC(=O)[C@@H]1CSSC[C@H](NC(=O)[C@@H](Cc2ccccc2)NC(=O)CCCCCNC(=O)CCCCCNC(=O)[C@H](Cc2ccccc2)NC(=O)C(CCC(=O)N[C@@H](Cc2ccccc2)C(=O)NCCCCCC(=O)NCCCCCC(=O)N2CCN(CCCN(C)c3ccc4nccc(C(=O)NCC(=O)N5CC(F)(F)C[C@H]5C#N)c4c3)CC2)NC(=O)CN2CCN(CC(=O)O)CCN(CC(=O)O)CCN(CC(=O)O)CC2)C(=O)N[C@@H](Cc2ccc(O)cc2)C(=O)N[C@H](Cc2c[nH]c3ccccc23)C(=O)N[C@@H](CCCCN)C(=O)N[C@@H]([C@@H](C)O)C(=O)N1)C(=O)O (stereo partly shown) [[^68Ga]Ga-TATE-46, metal not drawn]",cellular uptake in NCI-H727 cells compared with [68Ga]Ga-DOTA-TATE and [68Ga]Ga-FAPI-46,"[1]; 1.48×10^4 Bq/well, 30 min, 2 h, 4 h, γ-counter, n = 3, all p < 0.001",significantly higher
same,"cellular uptake in NCI-H727 cells on co-incubation with unlabeled TATE, FAPI-46, or TATE + FAPI-46","[1]; blocker at 1000 times the molar amount (10 µg/well), all p < 0.01",significant reduction
same,tumor uptake in NCI-H727 tumors (PET ROI) compared with [68Ga]Ga-FAPI-46 and [68Ga]Ga-DOTA-TATE,"[2]; 5.55–7.4 MBq, 30 min-4 h p.i., n = 3, p < 0.001",significantly higher
same,"tumor uptake (PET) on co-injection with blocking agents DOTA-TATE, FAPI-46, or DOTA-TATE + FAPI-46","[2]; blockers 10 μg/g each, NCI-H727 tumors, 1 h p.i., all p < 0.001",significantly reduced
same,cellular uptake in MC38 cells compared to NCI-H727 cells,[3],significantly lower
same,distribution half-life,[4],1.79 min
same,elimination half-life,[4],37.75 min
